Reference: patent publication US20090092614A1

What was measured:
[1] = target: murine IGF-1R(1-903)-Fc (murine; human) (UniProt Q60751); experiment: SPR
[2] = target: murine IGF-1R(1-903)-Fc (murine; human) (UniProt Q60751); experiment: SPR, Fab over receptor-Fc captured on M13-C06 surface

Sequence of murine IGF-1R(1-903)-Fc (murine; human) (Q60751 31-933 limits assumed, form in doubt): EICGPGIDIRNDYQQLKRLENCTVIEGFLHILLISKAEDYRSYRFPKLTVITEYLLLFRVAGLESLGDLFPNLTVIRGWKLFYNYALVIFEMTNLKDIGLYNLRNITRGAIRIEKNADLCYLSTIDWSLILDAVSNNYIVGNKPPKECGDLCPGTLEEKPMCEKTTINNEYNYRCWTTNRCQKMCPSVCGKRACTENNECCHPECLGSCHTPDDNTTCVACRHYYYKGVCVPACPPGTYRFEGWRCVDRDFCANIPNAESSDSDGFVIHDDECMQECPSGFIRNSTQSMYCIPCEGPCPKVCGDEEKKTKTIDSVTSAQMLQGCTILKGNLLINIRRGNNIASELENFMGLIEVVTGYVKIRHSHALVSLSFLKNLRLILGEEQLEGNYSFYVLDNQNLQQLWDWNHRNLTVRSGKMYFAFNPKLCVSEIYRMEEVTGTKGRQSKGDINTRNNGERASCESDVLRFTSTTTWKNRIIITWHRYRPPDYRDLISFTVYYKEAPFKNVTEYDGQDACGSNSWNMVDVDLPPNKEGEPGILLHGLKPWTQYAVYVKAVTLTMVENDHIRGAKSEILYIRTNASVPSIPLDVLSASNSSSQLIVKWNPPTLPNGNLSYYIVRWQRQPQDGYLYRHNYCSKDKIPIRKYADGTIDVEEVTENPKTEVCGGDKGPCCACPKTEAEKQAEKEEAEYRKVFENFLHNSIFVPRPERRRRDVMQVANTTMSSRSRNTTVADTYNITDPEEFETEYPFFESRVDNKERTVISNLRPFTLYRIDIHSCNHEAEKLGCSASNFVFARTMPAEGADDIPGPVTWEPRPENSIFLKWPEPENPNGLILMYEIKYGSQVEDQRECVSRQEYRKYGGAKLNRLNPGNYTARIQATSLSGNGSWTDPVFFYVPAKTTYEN

B1: M13-C06 Fab (Fab, V domains shown)
VH: EVQLLESGGGLVQPGGSLRLSCAASGFTFSIYRMQWVRQAPGKGLEWVSGISPSGGTTWYADSVKGRFTISRDNSKNTLYLQMNSLRAEDTAVYYCARWSGGSGYAFDIWGQGTMVTVSS
VL: DIQMTQSPLSLSASVGDRVTITCQASRDIRNYLNWYQQKPGKAPKLLIYDASSLQTGVPSRFGGSGSGTDFSFTIGSLQPEDIATYYCQQFDSLPHTFGQGTKLEIK
fold decrease in binding against human IGF-1R [1]: 100 fold | Biacore Relative RUmax [2]: 0
